Source: paper PMC12626770 (Protein Science : A Publication of the Protein Society, 2025)

Molecular target: T1, Human transferrin receptor 1 (TfR), avi-tagged, biotinylated (human, UniProt P02786 101-760)
T1 construct: also called biotinylated TfR
Assay: flow cytometry on cells; yeast surface display titration; varied TfR concentration, normalized MFU fitted non-linearly, averaged from three experiments; apparent Kd
Conditions: one partner purified

T1 sequence (P02786 101-760): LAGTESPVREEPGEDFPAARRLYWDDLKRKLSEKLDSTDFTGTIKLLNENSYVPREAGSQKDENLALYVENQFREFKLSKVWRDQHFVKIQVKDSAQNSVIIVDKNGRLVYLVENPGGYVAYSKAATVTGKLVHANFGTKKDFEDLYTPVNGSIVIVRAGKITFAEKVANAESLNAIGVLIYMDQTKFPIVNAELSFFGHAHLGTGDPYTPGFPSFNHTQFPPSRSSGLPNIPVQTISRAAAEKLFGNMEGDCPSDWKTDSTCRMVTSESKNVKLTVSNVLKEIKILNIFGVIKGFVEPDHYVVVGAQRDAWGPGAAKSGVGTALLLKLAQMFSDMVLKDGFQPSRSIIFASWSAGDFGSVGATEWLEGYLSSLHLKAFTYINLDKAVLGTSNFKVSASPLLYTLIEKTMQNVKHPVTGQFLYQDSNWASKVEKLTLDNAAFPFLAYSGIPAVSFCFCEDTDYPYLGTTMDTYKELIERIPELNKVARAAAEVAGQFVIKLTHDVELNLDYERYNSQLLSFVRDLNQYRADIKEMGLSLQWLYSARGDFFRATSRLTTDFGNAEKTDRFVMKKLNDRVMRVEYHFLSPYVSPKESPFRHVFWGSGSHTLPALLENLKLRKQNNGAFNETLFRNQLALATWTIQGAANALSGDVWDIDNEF

- Kd: 305 ± 55 nM
B1: TB14.3A T78I (S4.4), yeast surface displayed (designed binder)
chain: MEKRFYVLLIIVEDRKKAYRQVNELLHNFSEYILLRMGQDHRERYQSTIALVLKVDNDAIGALSGKLGQISGVKVMTIPEKRGSLE
modifications: biotinylated
